Test results taken from US20260241035A1, “FUNCTIONAL NUCLEIC ACID MOLECULE AND METHOD” (THE UNIVERSITY COURT OF THE UNIVERSITY OF EDINBURGH, priority 2022, published 2026).

B1: CSE005: clustered SOX dimer motif enhancer, SEQ ID NO: 41 (nucleic acid)
DNA: TCCCTTGGAAAGTGTTCAAATCAAAGCTACCTTTATACCACACTCCTTTGTGTCCTGATGTCCTGAATAGTGAGATTATCGGGTACACCCACCTGTTCCTGCACTTCCTTCCTGCTCAATTTAAATAAACAATGAGCTGTTTTTCTTCTTGACAAAGAGCCAGTCTATACAACAGCAGCAGGAAGATTACTTTCTATCTGTATGCAAACAGATACATAGCTGAGTTCTCTCCAATCCCCGGGAAAAGACCCTTTTAACTAAATGACTTATGCTTCT
B2: CSE012: clustered SOX dimer motif enhancer, SEQ ID NO: 40 (nucleic acid)
DNA: GTAGAGAATAGATTCTGTAGGGCTTTTAACCTCCACTGTTATTCCAAGGATGGGGCTCAGCTTCCTTCTTTTCCTTTCTGACTCTGTCTATATCAAGGGTCCCGTGGGTTGTTCCTTTCCATTGTGGTCTCACTGCCCAGCTTTAAGGCACCATCCTGGCACAGTGATAGGTTTACCTTTGTCTAAAAGTGTCCATTTGCATCTCTGTGGCCTTCTTGCCTGGGTGACACCCACTTGATTAGGCATTTGCCCAGTGTGAGATCAGAGTCCCTCATTTACATTTCCCCACAATAGTGAATGGCTTACAGGCTGTTCAAATACAGTTTCTAAACAGTGAATAATTCAGCCAGAAAGCCAGCCTTTTAAGGTTTGGATTTGGGGCATTTCTGAG
B3: CSE078: clustered SOX dimer motif enhancer, SEQ ID NO: 43 (nucleic acid)
DNA: TGTCGGGCAGCCAAGACCTGTCAGGGACAAGAGTGCTGTGAGCTGCGGGCTGGTGGGTGGAAGGAGAGAGGCCCCTGGTGCTCCTGCCAAGCCAAGGAATGTGTCATTGCTGTGCTGTGCCTTCAGCCTGGCATTTGGGAACAAAGAGGTACTTTGTATGGATAACATAGACCAGGTTGTTGGGGAAGGGATCAGAGATGGGGGTAGACCCATTTTTAAAAATCTGCTCATGTCCCAGGCAAGTTTTTTTGGCAGGGATTGCAGTTGGGCTATTACAAAGAGCTGCTGTACACGAGGGGTATGTCTACTACTGTCAAATTACAGCAGCAATTATCTTGGGCACTG
B4: ID4328: enhancer fragment, SEQ ID NO: 7 (nucleic acid)
DNA: TACAATCTATTCTCCATAGTCATCAGAGTTTCTTTAAAGGCACGGTTCAGACAATGGCACCCTCTGTTCCAAACCCTCCAGGGCTTCCTATTTCACTTAGCATAAAAACCAAAGTCCTCACAATGACCGACAAGTCTTCACACAATGTGCCCCTTCATTG
B5: CSE034: clustered SOX dimer motif enhancer, SEQ ID NO: 42 (nucleic acid)
DNA: GCCATAATTTGAACCTCGGAGTGCCCCACTGACAGCCAACGACACCAGAGGGTCCCTTTGTATGTAAGGATTGCATGACTCCAGTTGAATGACCCAAGCCGGGGACAAACAGGAAAGAACCCAGCAGCTCTGGAGGCCACTTGAGCTGACTGTCAAATGCTCTGGGCTGATTAACGACTACGAACTTCAGGGAAGACAAGTGTGCTTTGATGCCACAGAGCTATCCTGGGCCTGTACAGGCCCGTTTCTGCTCTGAATGAGGAAGCTGTACTTTGCAGGCACCCGGCAGAACAAGAATAGGGCCTAAGATACCTGAATGAAGGGCACAGAGGAAGTACAAAATACAGTCATTGTTGGAGCTAGAAGCTGGTGCCAGGCTACGAGGGGGCCCAGTGGCCAAGCATTATG

The molecules below were run on GSC7 cells (assay: Nano-Glo Dual-Luciferase Reporter (Nanoglo DLR) assay of enhancer activity, fold change to mCMV). Conditions: expression fold change of the individual enhancer compared to mCMV.
Type: cell-based, human
From the text: We chose an arrayed library format, with 160 bp enhancer fragments individually cloned into separate plasmids and arrayed in 96 well plates. These 160 bp were synthesized as a single pool of oligos, then randomly cloned into the plasmid and isolated. 20 bp×2 were needed for PCR amplification of the pool and so a library of 200 bp fragments was synthesized (Twist Biosciences). To meet our oligo synthesis strategy, ChIP-seq peaks expressed by GSCs were merged into a single oligo. This oligonucleotide pool was PCR-amplified (using limited cycles to reduce bias and ‘jackpot’ products meaning products which are easier to amplify will overtake the oligonucleotide pool) and cloned into the expression vector by an efficient Golden Gate reaction. 4579 individual plasmids were then randomly picked, isolated and plated as an arrayed plasmid DNA library on 96 well plates (×48). The bacterial colony picking and production of plasmid minipreps were supported by the Edinburgh Genome Foundry (S. Rosser). This library was then screened using the optimised Nanoglo DLR assay (Nano-Glo Dual-Luciferase Reporter Assay, Promega) in 384 well format. Each plate was transiently transfected together with PGK-FFLuc in a 1:10 ratio into GSC7 cells. 2 days later a Nanoglo DLR assay was performed and assayed on a plate reader.
Cells were seeded in 384 well plates using a multidrop and transfected the following day using the CyBio Felix. Two days later the experiment was terminated with a Nanoglo DLR assay and all hits with a fold change to mCMV greater than 10 were Sanger sequenced and mapped back to the genome.
Cells were seeded at the required density. The following day the transfection was carried out. For this the Plus reagent and Lipofectamine LTX (Life Technologies, 15338030) were each diluted in half the volume of Opti-MEM I Reduced-Serum Medium (further referred to as Optimem) (Life Technologies, 31985062). Following this step, the Plus reagent/Optimem premix was added to all DNA samples followed by the Lipofectamine LTX/Optimem premix. The transfection mix was incubated for 5 min at room temperature and then carefully dropped on the cells. Generally, no media change was carried out. Cells were analysed two days following transfection.
This assay consists of two steps. The transfection was carried out using a normalisation plasmid PGK-Firefly-Luciferase (Promega, E5011) that was transfected in a 1/10 ratio with the plasmid of interest. First, the Firefly Luciferase activity is measured which allows to normalise to transfection efficiency. In a second step, the activity of Nanoluc is determined which is the readout of the plasmid of interest. Cells were washed 3× with PBS and 20 μl was left in the 96 well plate after the final wash (25 μl in 384 well). Oneglo buffer was added and the plate was shaken for 5 min at 480 rpm to allow cell lysis. 20 μl cell lysate in 96 well format or 25 μl cell lysate in 384 well format was then transferred into the corresponding opaque white plate and luminescence was measured at for 0.1 s per well using the Ensight Multimode Plate Reader. For the following Nanoluc reaction in a 96 well format 2 μl cell lysate was transferred into an opaque white plate containing 40 μl PBS, and 20 μl Stopglo buffer, supplemented with substrate, was added to each well. In a 384 well format 20 μl Stopglo buffer containing substrate were added on top of the undiluted cell lysate. The plate was shaken again for 5 min at 480 rpm to quench the firefly luciferase reaction and ensure good mixing. Nanoluc activity was measured for 0.1 s per well, again using Ensight Multimode Plate Reader.
Data obtained by the Nanoluc reaction was normalised to Firefly reaction to account for well-to-well variability of transfection efficiency. Normalised data were used to calculate the fold change to the empty vector control mCMV.
For B1, the “Fold change (Median)” value was 11.5 fold. B2 was tested, and the “Fold change (Median)” value was 10.3 fold. B3 was tested, and the “Fold change (Median)” value was 10 fold. In the case of B4, the “Fold change (Median)” value is reported as 100.7 fold. B5 was tested, and the “Fold change (Median)” value was 14.3 fold.
